Experimental data reported in article PMC5667929, “Combinatorial action of Grainyhead, Extradenticle and Notch in regulating Hox mediated apoptosis in Drosophila larval CNS” (PLoS Genetics, 2017).

Biological target: T1, His tagged Grh (551-1333 aa) (Drosophila, UniProt P13002 551-1333)
T1 construct: Grainyhead (Grh), Drosophila transcription factor, residues 551-1333; also called His-Grh; Grainyhead; source: bacterial culture (induced two hours with 0.5mM IPTG at 18°C), in lysate for the pull-down
T1 sequence (P13002 551-1333): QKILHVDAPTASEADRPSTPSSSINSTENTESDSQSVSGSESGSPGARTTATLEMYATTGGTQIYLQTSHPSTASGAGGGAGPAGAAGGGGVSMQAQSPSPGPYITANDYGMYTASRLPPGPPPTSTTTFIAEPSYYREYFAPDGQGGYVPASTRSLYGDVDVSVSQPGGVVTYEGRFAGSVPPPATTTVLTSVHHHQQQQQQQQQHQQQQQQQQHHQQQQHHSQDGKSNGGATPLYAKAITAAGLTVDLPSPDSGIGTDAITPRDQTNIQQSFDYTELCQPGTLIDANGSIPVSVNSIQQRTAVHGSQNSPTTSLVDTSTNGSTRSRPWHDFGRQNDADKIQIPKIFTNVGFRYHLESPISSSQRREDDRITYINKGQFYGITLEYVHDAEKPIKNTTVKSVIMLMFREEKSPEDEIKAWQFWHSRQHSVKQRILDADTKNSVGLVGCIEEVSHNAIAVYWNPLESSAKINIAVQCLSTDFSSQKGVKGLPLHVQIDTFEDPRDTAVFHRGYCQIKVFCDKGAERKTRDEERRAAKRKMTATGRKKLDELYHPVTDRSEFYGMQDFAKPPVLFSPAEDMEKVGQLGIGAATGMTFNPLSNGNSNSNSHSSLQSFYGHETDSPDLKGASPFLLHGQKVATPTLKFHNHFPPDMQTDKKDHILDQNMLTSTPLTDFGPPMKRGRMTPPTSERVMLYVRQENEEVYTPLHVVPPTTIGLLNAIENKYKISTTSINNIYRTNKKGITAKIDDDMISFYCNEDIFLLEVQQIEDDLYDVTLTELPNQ
Experiment: native gel or EMSA; proteins (100 or 200 ng) mixed with DNA oligos of motifs from the 1Kb F3B3 enhancer; complexes seen on DNA only; 20 ul, room temperature, 30 minutes; binding buffer with Tris pH 7.5, KCl, MgCl2, EDTA, DTT, BSA, glycerol, polydIdC
Details: both partners purified

binding result: binds
B1: 6X His-tagged AbdA (residues 261-590) (domain or fragment)
chain: not shown
notes: Abdominal-A (AbdA), Drosophila Hox protein, residues 261-590; also called Hox
